From IntAct's records for PubMed 22036564

Biological target: efna1_mouse Efna1 (UniProt P52793)
Sequence (P52793 whole entry): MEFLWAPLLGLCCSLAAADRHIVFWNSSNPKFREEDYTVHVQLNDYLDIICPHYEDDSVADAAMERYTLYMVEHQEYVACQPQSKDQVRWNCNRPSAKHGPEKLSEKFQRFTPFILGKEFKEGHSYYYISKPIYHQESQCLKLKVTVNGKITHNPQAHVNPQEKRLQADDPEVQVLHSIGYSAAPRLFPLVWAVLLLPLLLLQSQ

## Ephrin type-A receptor 7 (Homo sapiens), Q15375 T105Q
  effect of a mutation on the interaction: decreasing interaction
